In publication PMC9733933 one finds stoichiometry N data, which are given here for one substance.

For the experiment, the target named is SARS-CoV-2 nsp7-11 polyprotein (SARS-CoV-2). The experiment can be described thus: SEC-MALS. Background: In gel filtration, larger molecules generally elute earlier.

As a reminder, the stoichiometry N is the number of molecules, sites or subunits per partner or assembly. In turn, “SARS-CoV-2 nsp7-11 polyprotein (domain or fragment)” displayed a stoichiometry N of 2.
